Data on 21 molecules can be found in patent US11371056B2, “HPPD variants and methods of use” (BASF Agricultural Solutions Seed US LLC, priority 2017, dated 2022).

Where a chain is given by its changes, count along the chain named.

To fix the notation:
B1: SEQ ID NO: 23 (protein)
chain: MADLYENPMGLMGFEFIEFASPTPGTLEPIFEIMGFTKVATHRSKNVHLYRQGEINLILNNEPNSIASYFAAEHGPSVCGMAFRVKDSQKAYNRALELGAQPIHIDTGPMELNLPAIKGIGGAPLYLIDRFGEGSSIYDIDFVYLEGVERNPVGAGLKVIDHLTHNVYRGRMVYWANFYEKLFNFREARYFDIKGEYTGLTSKAMSAPDGMIRIPLNEESSKGAGQIEEFLMQFNGEGIQHVAFLTDDLVKTWDALKKIGMRFMTAPGDEYYEMLEGRLPDHGEPVDQLQARGILLDGSSVEGDKRLLLQIFSEQLMGPVFFEFIQRKGDDGFGPHSFKVLFESIERDQVRRGVLTAD
modifications: mutant HPPD polypeptide
B2: SEQ ID NO: 2 (protein)
chain: B1 chain with G268P, E270T, Q315T, H336W, S337N, K339A, V340Q
modifications: mutant HPPD polypeptide
B3: SEQ ID NO: 45 (protein)
chain: B1 chain with R213K, Q315T, I345M
modifications: mutant HPPD polypeptide
B4: SEQ ID NO: 64 (protein)
chain: B1 chain with R213K, M264L, I345M
modifications: mutant HPPD polypeptide
B5: SEQ ID NO:50 (protein)
chain: B1 chain with R213K, Q315T
modifications: mutant HPPD polypeptide
B6: SEQ ID NO:60 (protein)
chain: B1 chain with R213K, M264L, Q315K, H336D, S344Q, I345M
modifications: mutant HPPD polypeptide
B7: SEQ ID NO:65 (protein)
chain: B1 chain with M264L, Q315K, H336D, S344Q
modifications: mutant HPPD polypeptide
B8: SEQ ID NO:66 (protein)
chain: B1 chain with M264L, H336D, S344Q
modifications: mutant HPPD polypeptide
B9: SEQ ID NO:68 (protein)
chain: B1 chain with R213K, P215A, M264L, H336D, S344Q
modifications: mutant HPPD polypeptide
B10: SEQ ID NO:58 (protein)
chain: B1 chain with R213K, M264L, S344Q, I345M
modifications: mutant HPPD polypeptide
B11: SEQ ID NO:55 (protein)
chain: B1 chain with M264L, Q315K, I345M
modifications: mutant HPPD polypeptide
B12: SEQ ID NO:54 (protein)
chain: B1 chain with M264L, Q315K, S344Q, I345M
modifications: mutant HPPD polypeptide
B13: SEQ ID NO:51 (protein)
chain: B1 chain with P215A
modifications: mutant HPPD polypeptide
B14: SEQ ID NO:69 (protein)
chain: B1 chain with R213K, H336D
modifications: mutant HPPD polypeptide
B15: SEQ ID NO:53 (protein)
chain: B1 chain with M264L, Q315T, S344Q, I345M
modifications: mutant HPPD polypeptide
B16: SEQ ID NO:56 (protein)
chain: B1 chain with M264L, S344Q, I345M
modifications: mutant HPPD polypeptide
B17: SEQ ID NO:67 (protein)
chain: B1 chain with P215A, M264L, H336D, I345V
modifications: mutant HPPD polypeptide
B18: SEQ ID NO:52 (protein)
chain: B1 chain with P215A, Q315R
modifications: mutant HPPD polypeptide
B19: SEQ ID NO:63 (protein)
chain: B1 chain with R213K, P215A, M264L, Q315K, S344Q, I345M
modifications: mutant HPPD polypeptide
B20: SEQ ID NO:59 (protein)
chain: B1 chain with M264L, Q315K, H336D, S344Q, I345M
modifications: mutant HPPD polypeptide
B21: SEQ ID NO:64 (protein)
chain: B1 chain with R213K, M264L, I345M
modifications: mutant HPPD polypeptide

The first data set relates to soybean plants (transgenic T0 events, wild-type). The data set can be described thus: Greenhouse spray test of T0 soybean events with Cmpd. 1, leaf area damage score. The arrangement: key to leaf area damage score, 25th percentile / leaf area damage score, Interquartile range: damage score 0 (no damage) to 100 (complete bleaching). In kind it is in vivo. The conditions noted are these: T0 soybean events expressing the polypeptide; five days after application of Cmpd. 1 at 300 g AI/ha; scale 0 (no damage) to 100 (complete bleaching). An excerpt: Tolerant green shoots were transferred to rooting media or grafted. Rooted plantlets were transferred to the greenhouse after an acclimation period. Plants containing the transgene were then sprayed with HPPD inhibitor herbicides, as for example with mesotrione at a rate of 300-600 g AI/ha, or with Cmpd. 1 (2-chloro-3-(methylsulfanyl)-N-(1-methyl-1H-tetrazol-5-yl)-4-(trifluoromethyl)benzamide) at a rate of 150 g-300 g AI/ha supplemented with ammonium sulfate and methyl ester rapeseed oil. Five to ten days after the application, the symptoms due to the application of the herbicide were evaluated and compared to the symptoms observed on wild-type plants under the same conditions.
For example, T0 soybean plants having a “plant expression cassette”, which includes an HPPD inhibitor tolerant HPPD polypeptide of the present invention, were tested towards the tolerance of Cmpd. 1.
Prior greenhouse trials with the transgenic plants, soybean transformants were routinely analyzed for the expression and presence of the transgenes using the ELISA protein detection method (see detailed description under item D and H). Only plants recovering in the selection media and having a detectable HPPD transgene protein expression were used for the herbicide tolerance analysis. A DeVries Tracker Sprayer was calibrated prior to each spraying. The chemical formulation used for Cmpd. 1 was supplemented with ammonium sulfate and methylated rape seed oil. Spray tests were conducted with a concentration, which equals to 300 grams AI per hectare (300 g AI/ha).
In greenhouse trials, independent T0 soybean events containing an exemplary mutant HPPD polypeptide were sprayed with the HPPD inhibitor herbicide Cmpd. 1 (2-chloro-3-(methylsulfanyl)-N-(1-methyl-1H-tetrazol-5-yl)-4-(trifluoromethyl)benzamide) at the rate of 300 grams AI/ha, supplemented with ammonium sulfate and methyl ester rapeseed oil. Five days after the application, the leaf damaged area due to the HPPD inhibitor herbicide is scored in a scale from 0 (no damage) to 100 (complete bleaching). Under those conditions, the wild-type plants were completely bleached and their damage scores were in the 95-100 range.
Table 5 presents the distribution of the HPPD inhibitor herbicide damage score data as percentile for exemplary mutant HPPD inhibitor herbicide tolerant polypeptides (SEQ ID NOs). The percentiles normalize ranks of the damage score from an individual plant in a population. […] The median is the 50th percentile. Half the values had higher damage scores; half had lower damage scores. The value of the 75th and 90th percentile is the damage score where 75% and 90% of the soybean events had lower damage scores, respectively. The difference between the 75th and 25th percentile is called the interquartile range and a marker to quantify scattering in the population. All constructs had only one single cassette insertion in the soybean genome.
As for B1, the “leaf area damage score, 25th percentile” value is on record as 10.
As for B2, the “leaf area damage score, 25th percentile” value amounted to 15.0.
As for B3, the “leaf area damage score, 25th percentile” value was found to be 10.0.
On to B4, for which the “leaf area damage score, 25th percentile” value is reported as 5.0.

Still in this data set, the particulars now being: T0 soybean events expressing the polypeptide; five days after application of Cmpd. 1 at 300 g AI/ha; scale 0 to 100.
Turning to B1, the “leaf area damage score, 75th percentile” value worked out at 22.5 and the “leaf area damage score, 90th percentile” value was 55.0.
Consider B2, for which the “leaf area damage score, 75th percentile” value is on record as 45.0 and the “leaf area damage score, 90th percentile” value is reported as 87.0.
Consider B3, for which the “leaf area damage score, 75th percentile” value worked out at 25.0 and the “leaf area damage score, 90th percentile” value is listed as 35.0.
In the case of B4, the “leaf area damage score, 75th percentile” value worked out at 25.0 and the “leaf area damage score, 90th percentile” value is 38.0.

The data set is the same for the next values; noted with them: T0 soybean events expressing the polypeptide; five days after application of Cmpd. 1 at 300 g AI/ha; scale 0 to 100; 50th percentile.
As for B1, the “leaf area damage score, Median” value is 10.
Turning to B2, the “leaf area damage score, Median” value was 20.0.
As to B3, the “leaf area damage score, Median” value came to 15.0.
Still for that read-out and setting: under B4 stands 10.0.

The same data set, now with this note: difference between 75th and 25th percentile; T0 soybean events, five days after application of Cmpd. 1 at 300 g AI/ha.
For the molecule B1, the “leaf area damage score, Interquartile range” value was determined as 12.5.
Take B2: the “leaf area damage score, Interquartile range” value is recorded as 30.0.
For B3, the “leaf area damage score, Interquartile range” value is reported as 15.0.
The same measure, in the same setting: under B4 stands 20.0.

Another data set deals with Pseudomonas fluorescens HPPD polypeptide (wild-type and mutants). The data set can be described thus: Coupled HPPD activity assay: turnover and residual turnover in crude HPPD polypeptide extracts with and without Cmpd. 1. Type of data set: biochemical. The conditions noted are these: 100 μM Cmpd. 1, normalised to turnover without inhibitor.
Take B5: the “Residual turnover [%]” value worked out at 54%.
On to B6, for which the “Residual turnover [%]” value is listed as 56%.
On the same count and under the same terms, under B7 stands 60%.
Take B8: the “Residual turnover [%]” value worked out at 65%.
Still for that read-out and setting: under B9 stands 74%.
On the same count and under the same terms, under B10 stands 81%.
Turning to B11, the “Residual turnover [%]” value is 58%.
The same measure, in the same setting: under B12 stands 82%; under B13, 61%.
Consider B14, for which the “Residual turnover [%]” value is recorded as 40%.
On to B15, for which the “Residual turnover [%]” value amounted to 73%.
On the same count and under the same terms, under B16 stands 75%; under B17, 90%; under B18, 61%.
As for B19, the “Residual turnover [%]” value came to 67%.
The same measure, in the same setting: with B20 the figure was 59%; with B21, 61%.

The data set is the same for the next values; noted with them: absence of Cmpd. 1; changes in absorbance (OD) at 320 nm in the coupled assay, 30 min.
In the case of B5, the Turnover stood at 0.272.
Regarding B6, the Turnover was determined as 0.252.
Still for that read-out and setting: with B7 the figure was 0.204.
Still for that read-out and setting: under B8 stands 0.187; under B9, 0.182; under B10, 0.339.
Still for that read-out and setting: under B11 stands 0.303; under B12, 0.274; under B13, 0.173.
For B14, the Turnover stood at 0.173.
As to B15, the Turnover amounted to 0.339.
B16 yielded a Turnover of 0.339.
Still for that read-out and setting: with B17 the figure was 0.141; with B18, 0.173.
Still for that read-out and setting: with B19 the figure was 0.209; with B20, 0.215.
The molecule B21 registered a Turnover of 0.295.

The data set is the same for the next values; noted with them: presence of 100 μM Cmpd. 1; changes in absorbance (OD) at 320 nm in the coupled assay, 30 min.
As to B5, the Residual turnover stood at 0.148.
On the same count and under the same terms, with B6 the figure was 0.14.
Still for that read-out and setting: under B7 stands 0.123; under B8, 0.122; under B9, 0.134.
On to B10, for which the Residual turnover stood at 0.276.
On to B11, for which the Residual turnover is recorded as 0.177.
Still for that read-out and setting: under B12 stands 0.224.
As for B13, the Residual turnover worked out at 0.106.
Still for that read-out and setting: under B14 stands 0.069.
Regarding B15, the Residual turnover was 0.246.
Consider B16, for which the Residual turnover was 0.253.
The same measure, in the same setting: under B17 stands 0.127; under B18, 0.105; under B19, 0.139.
Regarding B20, the Residual turnover is listed as 0.126.
As for B21, the Residual turnover is 0.181.
